Test [1] addresses T1, FcγRIIIAV158 with His tag (UniProt P08637 17-208).
T1 construct: Bought protein; also called FcγRIIIAV158 (Sino Biological #10389-H08H1)
Kind of test: SPR, His-tagged FcγRIIIAV158 captured by anti-His antibody on the chip, antibody as analyte [row FcγRIIIAV158, column GPC3×CD3 κλ002]. The method, then:
(§1) 50 μg/mL His-Tag antibodies were conjugated to a CMS chip through amino groups, and recombinant proteins FcγRI, FcγRIIAH131, and FcγRIIIAV158 with His tags (Sino Biological, #10256-H08H/10374-H08H1/10389-H08H1) were respectively captured for a capture time of 40 s at a flow rate of 10 μL/min. After the baseline was stable, the gradient-diluted antibody (the initial concentration of 37.5 μg/mL, 2-fold dilution) flowed through the chip at a flow rate of 30 μL/min, with a binding time of 120 s and a dissociation time of 200 s. The affinity constants were obtained by fitting them with Biacore evaluation software. It can be seen from FIG. 22 that the GPC3×CD3κλ bispecific antibody has no binding to FcγRI, FcγRIIAH131, and FcγRIIIAV158; The wild-type IgG4 control antibody can bind to FcγRI with high affinity and weakly bind to Fcγ RIIAH131.
(In general: In SPR one partner is held on a chip, and binding of the other changes the refractive index at the surface.)

The next test addresses T2, human GPC3 on cells (human, UniProt P51654 25-563).
T2 construct: whole, on cells; One molecule is used for both CHO-hGPC3 transfectants and GPC3+ HepG2 cells; The assay field names the cell; also called CHO-hGPC3 (clone 2B10); CHO-human GPC3
Kind of test: flow cytometry, HepG2 cells. The procedure: HepG2 cells in the logarithmic growth phase were taken, added with 200 μg/mL of murine IgG (Jackson ImmunoResearch, 115-005-03), and blocked on an ice bath for 30 min. The cells were adjusted to 5×10⁵ cells/mL with 4% calf serum and added to a 96-well U-shaped plate at 100 μl/well. The centrifugation was performed at 300 g for 5 min. The supernatant was discarded. 100 μL of gradient diluted antibody (initial concentration: 1800 nM, 3-fold dilution, 10 gradients) was added to each well, and incubated at 4° C. for 60 min. The primary antibody was washed, added with Alexa Fluro647 labeled goat anti-human IgG Fc (1:300 dilution) 50 μL/well, and incubated on ice for 20 min. After washing once, PI solution was added at 50 μL/well. Incubation was performed for 5 min before detection by flow cytometry. The GPC3×CD3κλ bispecific antibody can bind to GPC3+ tumor cell HepG2 with high affinity.

The target of test [2] is T3, human CD3 on T cells (human, UniProt P07766 23-207).
T3 construct: whole, on cells; The target is the native CD3 complex on cells; The recombinant antigen used elsewhere is the εγ heterodimer; also called CD3 on Jurkat cells; CD3 on human peripheral blood CD4+ and CD8+ T cells
Kind of test: flow cytometry, human peripheral blood CD8+ T cells. The method, then:
Fresh human peripheral blood was taken and PBMCs were isolated by Ficoll-Paque Plus (GE, 17-1440-03). The PBMCs were adjusted to 5×10⁵ cells/mL with 4% calf serum (Hyclone, SH30626.06), and added to a 96-well U-plate at 100 μL/well. The centrifuged supernatant was discarded. 100 μL of gradient diluted antibody (initial concentration: 1800 nM, 3-fold dilution, 11 gradients) was added to each well and incubated at 4° C. for 60 minutes. The secondary antibody Alexa Fluro647 labeled goat anti-human IgG Fc (1:300 dilution) was added at 50 μL/well and incubated on an ice bath for 20 min. After washing once, PI solution was added at 50 μL/well. Incubation was performed for 5 min before detection by flow cytometry (BD Celesta). The GPC3×CD3κλ bispecific antibody can bind to the human peripheral blood T cell with low affinity.
In general terms: A flow cytometer gives signals particle by particle.

A further test concerns the target T4, FcγRIIAH131 with His tag (UniProt P12318 34-218).
T4 construct: Bought protein; also called Fcγ RIIAH131 (Sino Biological #10374-H08H1)
T4 sequence (looked up): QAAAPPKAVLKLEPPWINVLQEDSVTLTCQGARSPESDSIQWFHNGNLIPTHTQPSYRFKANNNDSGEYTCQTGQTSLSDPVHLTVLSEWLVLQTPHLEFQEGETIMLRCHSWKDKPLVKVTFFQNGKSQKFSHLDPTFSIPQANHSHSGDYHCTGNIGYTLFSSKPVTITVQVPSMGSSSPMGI
Kind of test: SPR, His-tagged FcγRIIAH131 captured by anti-His antibody on the chip, antibody as analyte [row FcγRIIAH131, column GPC3×CD3 κλ002]. The method, then:
as §1

The target in test [3] is T3, human CD3 on T cells. Kind of test: flow cytometry, Jurkat cells. The method, then: Jurkat cells in the logarithmic growth phase were taken, added with 200 μg/mL of murine IgG (Jackson ImmunoResearch, 115-005-03), and incubated on ice for 30 minutes. The cells were adjusted to 5×10⁵ cells/mL with 4% calf serum and added to a 96-well U-shaped plate at 100 μl/well. The centrifugation was performed at 300 g. The supernatant was discarded. 100 μL of gradient diluted antibody (initial concentration: 1800 nM, 3-fold dilution, 10 gradients) was added to each well, and incubated at 4° C. for 60 min. The secondary antibody Alexa Fluro647 labeled goat anti-human IgG Fc (1:300 dilution) was added at 50 μL/well and incubated on ice for 20 min. After washing once, PI solution was added at 50 μL/well. Incubation was performed for 5 min before detection by flow cytometry (BD C6).

The target in test [4] is recombinant cynomolgus monkey GPC3 full-length protein (cynomolgus monkey, UniProt A0A2K5VK50 24-558). Kind of test: SPR (Biacore T200), antibody on Protein A chip, GPC3 as analyte. The procedure: (§2) The antibodies with a concentration of 1 μg/ml were captured on the Protein A chip (GE healthcare). Different concentrations of recombinant human or cynomolgus monkey GPC3 protein (5 μg/ml as the initial concentration, 2-fold gradient, a total of 6 concentration points) as the analyte was flowed through the chip at a flow rate of 30 μL/min, with an association time of 120 seconds, and a dissociation time of 400 seconds. The changes in the SPR signal during the association and dissociation of the protein were recorded. The kinetic constants were obtained by fitting with 1:1 binding model using Biacore T200 evaluation software.

Test [5] has as its target T5, recombinant human GPC3 protein (human, UniProt P51654 25-563).
T5 construct: also called human GPC3 full-length protein; recombinant GPC3 protein
The test is described as above. The procedure:
as §2

Test [6] addresses T1, FcγRIIIAV158 with His tag. Kind of test: SPR, His-tagged FcγRIIIAV158 captured by anti-His antibody on the chip, antibody as analyte [row FcγRIIIAV158, column GPC3×CD3 κλ003]. The method, then: as §1

T1 sequence (P08637 17-208 F176V limits assumed): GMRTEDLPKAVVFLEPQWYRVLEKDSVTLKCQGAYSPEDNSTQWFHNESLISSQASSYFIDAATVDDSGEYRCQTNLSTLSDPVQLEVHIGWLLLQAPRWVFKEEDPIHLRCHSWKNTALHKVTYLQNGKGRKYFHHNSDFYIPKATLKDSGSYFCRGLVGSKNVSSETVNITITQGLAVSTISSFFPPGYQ

B1: GPC3×CD3 κλ002 (bispecific antibody, human IgG4 S228P, kappa, lambda)
light 1: DVVMTQSPLSLPVTPGEPASISCRSSQSIVHSNGNTYLEWYLKKPGQSPQLLIYKVSNRFSGVPDRFSGSGSGTDFTLKISRVEAEDVGVYFCLQVTHVPLTFGQGTKLEIKRTVAAPSVFIFPPSDEQLKSGTASVVCLLNNFYPREAKVQWKVDNALQSGNSQESVTEQDSKDSTYSLSSTLTLSKADYEKHKVYACEVTHQGLSSPVTKSFNRGEC
heavy 1: QVQLVQSGAEVKKPGSSVKVSCKASGYTFADYEIHWVREAPGQGLEWMGAIHPGSGGTAYAQKFQGRVTLTADESSTTAYMELSSLRSEDTAVYYCTRYYSFAYWGQGTLVTVSSASTKGPSVFPLAPCSRSTSESTAALGCLVKDYFPEPVTVSWNSGALTSGVHTFPAVLQSSGLYSLSSVVTVPSSSLGTKTYTCNVDHKPSNTKVDKRVESKYGPPCPPCPAPEFEGGPSVFLFPPKPKDTLMISRTPEVTCVVVDVSQEDPEVQFNWYVDGVEVHNAKTKPREEQFNSTYRVVSVLTVLHQDWLNGKEYKCKVSNKGLASSIEKTISKAKGQPREPQVCTLPPSQEEMTKNQVSLSCAVKGFYPSDIAVEWESNGQPENNYKTTPPVLDSDGSFFLVSKLTVDKSRWQEGNVFSCSVMHEALHNHYTQKSLSLSLGK
light 2: QAVVTQEPSLTVSPGGTVTLTCRSSTGAVTTSNYANWVQEKPGQAPRGLIGGTNKRAPWTPARFSGSLLGGKAALTITGAQAEDEAEYYCVLWYSNLWVFGGGTKLTVLGQPKAAPSVTLFPPSSEELQANKATLVCLISDFYPGAVTVAWKADSSPVKAGVETTTPSKQSNNKYAASSYLSLTPEQWKSHRSYSCQVTHEGSTVEKTVAPTECS
heavy 2: EVQLVESGGGLVQPGGSLRLSCAASGFTFNTYAMNWVRKAPGKGLEWVGRIRSKYNNYATYYADSVKDRFTISRDDSKNSLYLQMNSLKTEDTAVYYCVRHGNFGNSYVSWFAYWGQGTLVTVSSASTKGPSVFPLAPCSRSTSESTAALGCLVKDYFPEPVTVSWNSGALTSGVHTFPAVLQSSGLYSLSSVVTVPSSSLGTKTYTCNVDHKPSNTKVDKRVESKYGPPCPPCPAPEFEGGPSVFLFPPKPKDTLMISRTPEVTCVVVDVSQEDPEVQFNWYVDGVEVHNAKTKPREEQFNSTYRVVSVLTVLHQDWLNGKEYKCKVSNKGLASSIEKTISKAKGQPREPQVYTLPPCQEEMTKNQVSLWCLVKGFYPSDIAVEWESNGQPENNYKTTPPVLDSDGSFFLYSKLTVDKSRWQEGNVFSCSVMHEALHNHYTQKSLSLSLGK
notes: also called GPC3 x CD3 κλ002; GPC3×CD3κλ bispecific antibody
In general, EC50 refers to the midpoint of the concentration-response curve. One may read the Kd as a measure of binding affinity in units of concentration. Turning to B1, the binding result (in test [1]; with FcγRIIAH131 with His tag) was “no binding” throughout. Further, the EC50 with human GPC3 on cells worked out at 2.1 nM; with human CD3 on T cells [2] it was 65 nM; with human CD3 on T cells [3], 36 nM. Besides, the Kd in test [4] was 1.6 nM; in test [5] it was 1.35 nM.

B2: GPC3×CD3 κλ003 (bispecific antibody, human IgG4 S228P, kappa, lambda)
light 1: DVVMTQSPLSLPVTPGEPASISCRSSQSIVHSNGNTYLEWYLKKPGQSPQLLIYKVSNRFSGVPDRFSGSGSGTDFTLKISRVEAEDVGVYFCLQVTHVPLTFGQGTKLEIKRTVAAPSVFIFPPSDKKLKSGTASVVCLLNNFYPREAKVQWKVDNALQSGNSQESVTEQDSKDSTYSLSSTLTLSKADYEKHKVYACEVTHQGLSSPVTKSFNRGEC
heavy 1: QVQLVQSGAEVKKPGSSVKVSCKASGYTFADYEIHWVREAPGQGLEWMGAIHPGSGGTAYAQKFQGRVTLTADESSTTAYMELSSLRSEDTAVYYCTRYYSFAYWGQGTLVTVSSASTKGPSVFPLAPCSRSTSESTAALGCLVEDYFPEPVTVSWNSGALTSGVHTFPAVLQSSGLYSLSSVVTVPSSSLGTKTYTCNVDHKPSNTKVDERVESKYGPPCPPCPAPEFEGGPSVFLFPPKPKDTLMISRTPEVTCVVVDVSQEDPEVQFNWYVDGVEVHNAKTKPREEQFNSTYRVVSVLTVLHQDWLNGKEYKCKVSNKGLASSIEKTISKAKGQPREPQVCTLPPSQEEMTKNQVSLSCAVKGFYPSDIAVEWESNGQPENNYKTTPPVLDSDGSFFLVSKLTVDKSRWQEGNVFSCSVMHEALHNHYTQKSLSLSLGK
light 2: QAVVTQEPSLTVSPGGTVTLTCRSSTGAVTTSNYANWVQEKPGQAPRGLIGGTNKRAPWTPARFSGSLLGGKAALTITGAQAEDEAEYYCVLWYSNLWVFGGGTKLTVLGQPKAAPSVTLFPPSSEELQANKATLVCLISDFYPGAVTVAWKADSSPVKAGVETTTPSKQSNNKYAASSYLSLTPEQWKSHRSYSCQVTHEGSTVEKTVAPTECS
heavy 2: EVQLVESGGGLVQPGGSLRLSCAASGFTFNTYAMNWVRKAPGKGLEWVGRIRSKYNNYATYYADSVKDRFTISRDDSKNSLYLQMNSLKTEDTAVYYCVRHGNFGNSYVSWFAYWGQGTLVTVSSASTKGPSVFPLAPCSRSTSESTAALGCLVKDYFPEPVTVSWNSGALTSGVHTFPAVLQSSGLYSLSSVVTVPSSSLGTKTYTCNVDHKPSNTKVDKRVESKYGPPCPPCPAPEFEGGPSVFLFPPKPKDTLMISRTPEVTCVVVDVSQEDPEVQFNWYVDGVEVHNAKTKPREEQFNSTYRVVSVLTVLHQDWLNGKEYKCKVSNKGLASSIEKTISKAKGQPREPQVYTLPPCQEEMTKNQVSLWCLVKGFYPSDIAVEWESNGQPENNYKTTPPVLDSDGSFFLYSKLTVDKSRWQEGNVFSCSVMHEALHNHYTQKSLSLSLGK
notes: also called GPC3 x CD3 κλ003; GPC3×CD3κλ bispecific antibody
On to B2, for which the EC50 with human GPC3 on cells was determined as 2.5 nM; with human CD3 on T cells [2] it was 69 nM; in the test with human CD3 on T cells [3], 26 nM. Further, in test [6], the binding result is listed as “no binding”. Moreover, the dissociation constant (Kd) in test [4] is 1.91 nM; in test [5], 2.11 nM.

(Values after patent publication US20240043568A1 (KEYMED BIOSCIENCES, published 2024).)
